Each block holds one molecule with its values, some of them ahead of it. No end group written: not given here. *: point of attachment. FITC = O=C1OC2(c3ccc(O)cc3Oc3cc(O)ccc32)c2ccc(NC(=S)*)cc21
Key:
[1] = molecular target: GIT1 FAT domain (aa 640-770) (mouse) (UniProt Q68FF6); assay: ITC
[2] = molecular target: FITC-labelled β-Pix GBD peptide, wild type (mouse); assay: fluorescence polarisation
SEC-MALS = molecular target: the molecule itself; assay: SEC-MALS
GIT1 SHD domain = molecular target: T1, GIT1 SHD domain (mouse, UniProt Q68FF6 260-371); assay: ITC
T1 sequence (looked up): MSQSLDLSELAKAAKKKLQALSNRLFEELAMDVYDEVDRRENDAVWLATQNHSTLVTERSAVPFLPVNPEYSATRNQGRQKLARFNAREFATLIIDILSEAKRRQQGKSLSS

[3] = molecular target: T2, GIT1 GAP-ANK-SHD (GAS) tandem (mouse, UniProt Q68FF6 1-371); assay: ITC
T2 sequence (looked up): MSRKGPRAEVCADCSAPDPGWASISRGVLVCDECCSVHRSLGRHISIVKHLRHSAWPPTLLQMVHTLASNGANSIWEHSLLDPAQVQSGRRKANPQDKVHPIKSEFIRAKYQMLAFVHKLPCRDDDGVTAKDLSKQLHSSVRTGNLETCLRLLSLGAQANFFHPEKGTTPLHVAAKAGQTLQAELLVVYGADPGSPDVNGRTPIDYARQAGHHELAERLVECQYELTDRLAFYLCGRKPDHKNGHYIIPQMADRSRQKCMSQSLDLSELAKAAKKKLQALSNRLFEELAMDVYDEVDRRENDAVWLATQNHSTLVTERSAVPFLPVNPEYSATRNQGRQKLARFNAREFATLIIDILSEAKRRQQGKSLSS

[4] = molecular target: T2, GIT1 GAP-ANK-SHD (GAS) tandem; assay: fluorescence polarisation

GIT1 FAT domain (aa 640-770) (mouse), sequence (Q68FF6 640-770): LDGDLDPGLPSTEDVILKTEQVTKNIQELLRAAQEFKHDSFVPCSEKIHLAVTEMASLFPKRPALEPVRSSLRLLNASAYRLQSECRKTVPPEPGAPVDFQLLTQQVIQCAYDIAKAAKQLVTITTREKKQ

Molecule: Paxillin LD2 motif (peptide)
Kd [1]: 164 µM

Kd [2]: 0.027 µM
Molecule: GIT2 GAP-ANK-SHD (GAS) tandem, wild type, purified (domain or fragment)

Molecule: Paxillin LD4 motif (aa 261-282) (peptide)
Kd [1]: 3 µM

B1: GIT1 coiled-coil domain, wild type (domain or fragment, mouse, UniProt Q68FF6 426-483, looked up)
chain: SDGAVTLQEYLELKKALATSEAKVQQLMKVNSSLSDELRRLQREIHKLQAENLQLRQP
stoichiometry N (SEC-MALS): 2

Kd (GIT1 SHD domain): ~0.18 µM
Kd [3]: ~0.015 µM
B2: β-Pix GBD peptide (aa 528-548) (peptide)
peptide: ALEEDAQILKVIEAYCTSAKT

Kd [4]: ~76.4 µM
B3: FITC-labelled β-Pix GBD Y542D peptide (peptide, UniProt Q9ES28-4 633-653, looked up)
peptide: {FITC}-ALEEDAQILKVIEADCTSAKT

Kd (GIT1 SHD domain): ~0.15 µM
B4: β-Pix 494-555 (domain or fragment, mouse, UniProt Q9ES28-4 599-660, looked up)
chain: DLSKSPKTMKKLLPKRKPERKPSDEEFAVRKSTAALEEDAQILKVIEAYCTSAKTRQTLNSS

B5: β-Pix coiled-coil domain, wild type (domain or fragment, mouse, UniProt Q9ES28-4 691-751, looked up)
chain: EEKSLVDTVYALKDEVQELRQDNKKMKKSLEEEQRARKDLEKLVRKVLKNMNDPAWDETNL
stoichiometry N (SEC-MALS): 3

From doi:10.1101/2019.12.18.881771 (bioRxiv, 2019)
